Measurements: patent publication US20190240316A1

Key:
[1] = target: RSV strain A2 F protein, pre-fusion-stabilized DS-Cav1 (human respiratory syncytial virus subgroup A strain A2) (UniProt P03420); test: ELISA on coated antigen
[2] = target: RSV strain A2 F protein, pre-fusion-stabilized SC-TM (human respiratory syncytial virus strain A2) (UniProt P03420); test: ELISA on coated antigen

Substance	EC50 [1] [mg/L]	EC50 [2] [mg/L]
mAb D25 (antibody)	0.089	–
motavizumab (antibody)	0.037	0.028
